From US20200339657A1, “PEPTIDES AND COMBINATION THEREOF FOR USE IN THE IMMUNOTHERAPY AGAINST CANCERS” (Immatics Biotechnologies GmbH, priority 2017, published 2020) come the findings set out here.

Assay [1] deals with HLA-A*24:02 (Homo sapiens, UniProt P04439, D101N/D140Y/D185E/E176V/E190D/F33S/G103R/G107R/I119L/I121M/I306V/K335N/L105A/L180Q/L300P/N151K/N90K/Q86E/Q94H/R106L/R138H/R89G/T104I/T345S/V100E/W191G/Y123F). The assay is described as follows: MHC binding assay (UV-ligand exchange, β2m ELISA). The settings on record: peptide exchange yield, binding to HLA-A*24:02. (In an ELISA, binding on a coated surface is turned into a signal by an enzyme label.)

In assay [2] the target is HLA-B*07:02 (Homo sapiens, UniProt P01889). The assay is described as follows: MHC binding assay (UV-ligand exchange, β2m ELISA). The settings on record: peptide exchange yield, binding to HLA-B*07:02.
The test system of assay [3] is CD8+ T cells. The assay is described as follows: In vitro immunogenicity: T-cell priming with aAPCs loaded with peptide/MHC and anti-CD28, multimer readout. In kind it is cell-based, human.
Assay [4] addresses HLA-A*01:01 (Homo sapiens, UniProt P04439, A114D/A174V/A182V/D101N/D185E/E176A/E190D/L180R/Q94H/R68K/S129P/T187R/V100A/V91M/W191G). The assay is described as follows: MHC binding assay (UV-ligand exchange, β2m ELISA). The settings on record: peptide exchange yield.

For the substance “126 (TFQDKTLNF; listed as Homo sapiens) [compound 126]”, in assay [1], the Peptide exchange entry was ““+++” (>50 = +++)”.

“157 (SPSPGKDPTL; listed as Homo sapiens) [compound 157]”: the Peptide exchange result in assay [2] was ““++” (>20% = ++)”.

In the case of “28 (LTDYINANY; listed as Homo sapiens) [compound 28]”, in assay [3] (HLA A*01), the “Wells positive [%]” value is recorded as ““+” (<20% = +)”. For the same substance, the Peptide exchange entry in assay [4] is reported as ““+++” (>50 = +++)”.

On to “154 (GPGTRLSL; listed as Homo sapiens) [compound 154]”, for which the Peptide exchange entry in assay [2] is recorded as ““++” (>20% = ++)”.

Turning to “170 (SPMWHVQQL; listed as Homo sapiens) [compound 170]”, in assay [3] (HLA B*07), the “Wells positive [%]” value was ““++++” (>= 70% = ++++)”. Moreover, the Peptide exchange result in assay [2] is on record as ““+++” (>50 = +++)”.

“114 (KFLDSNIKF; listed as Homo sapiens) [compound 114]”: in assay [1], the Peptide exchange entry is ““+++” (>50 = +++)”.

With “164 (ISTPSEVSTPL; listed as Homo sapiens) [compound 164]”, in assay [3] (HLA B*07), the “Wells positive [%]” value is given as ““+” (<20% = +)”. Moreover, the Peptide exchange result in assay [2] is ““++” (>20% = ++)”.

As for “129 (VFLNQIYTQL; listed as Homo sapiens) [compound 129]”, in assay [1], the Peptide exchange entry is ““++” (>20% = ++)”.

Turning to “121 (SYIEKVRFL; listed as Homo sapiens) [compound 121]”, the Peptide exchange result in assay [1] is ““+++” (>50 = +++)”.

On to “148 (VPDGVSKVL; listed as Homo sapiens) [compound 148]”, for which the “Wells positive [%]” value in assay [3] (HLA B*07) is ““+++” (50%-69% = +++)”. The Peptide exchange entry in assay [2] is on record as ““++” (>20% = ++)”.

As to “258 (APSGTRVVQVL; listed as Homo sapiens) [compound 258]”, the Peptide exchange entry in assay [2] was ““++” (>20% = ++)”.

Regarding “146 (SPGDKRLAA; listed as Homo sapiens) [compound 146]”, the “Wells positive [%]” value in assay [3] (HLA B*07) is ““++” (20%-49% = ++)”. In addition, the Peptide exchange result in assay [2] is reported as ““+++” (>50 = +++)”.

On to “122 (KLYGMPTDFGF; listed as Homo sapiens) [compound 122]”, for which, in assay [1], the Peptide exchange entry is on record as ““++” (>20% = ++)”.

Turning to “172 (KPAHYPLIAL; listed as Homo sapiens) [compound 172]”, the “Wells positive [%]” value in assay [3] (HLA B*07) is reported as ““+++” (50%-69% = +++)”. Further, in assay [2], the Peptide exchange result was ““+++” (>50 = +++)”.

As to “168 (IPTDKLLVI; listed as Homo sapiens) [compound 168]”, the Peptide exchange result in assay [2] is ““++” (>20% = ++)”.

For “135 (VIAPIISNF; listed as Homo sapiens) [compound 135]”, the Peptide exchange result in assay [1] is listed as ““+++” (>50 = +++)”.

In the case of “256 (LPALPQQLI; listed as Homo sapiens) [compound 256]”, in assay [2], the Peptide exchange result was ““+++” (>50 = +++)”.

As to “149 (YPLTGDTRL; listed as Homo sapiens) [compound 149]”, in assay [2], the Peptide exchange entry is ““++” (>20% = ++)”.

On to “156 (HPQVVILSL; listed as Homo sapiens) [compound 156]”, for which the “Wells positive [%]” value in assay [3] (HLA B*07) is ““++” (20%-49% = ++)”. For the same substance, the Peptide exchange result in assay [2] was ““+++” (>50 = +++)”.

In the case of “113 (VWAKILSAF; listed as Homo sapiens) [compound 113]”, in assay [1], the Peptide exchange entry is listed as ““+++” (>50 = +++)”.

“134 (TYLTGRQF; listed as Homo sapiens) [compound 134]”: in assay [1], the Peptide exchange entry is ““++” (>20% = ++)”.

On to “136 (EYNNIQHLF; listed as Homo sapiens) [compound 136]”, for which the Peptide exchange result in assay [1] was ““+++” (>50 = +++)”.

For the substance “245 (ITEKNSGLY; listed as Homo sapiens) [compound 245]”, the “Wells positive [%]” value in assay [3] (HLA A*01) was ““+++” (50%-69% = +++)”. Besides, the Peptide exchange result in assay [4] is reported as ““+++” (>50 = +++)”.

For “117 (NFLPPIIARF; listed as Homo sapiens) [compound 117]”, the Peptide exchange result in assay [1] is given as ““++++” (>75% = ++++)”.

Regarding “160 (RPAPADSAL; listed as Homo sapiens) [compound 160]”, the Peptide exchange result in assay [2] is reported as ““+++” (>50 = +++)”.

For the substance “118 (TYISKTIAL; listed as Homo sapiens) [compound 118]”, the Peptide exchange entry in assay [1] is ““+++” (>50 = +++)”.

Take “147 (SPIKVPLLL; listed as Homo sapiens) [compound 147]”: the Peptide exchange result in assay [2] is ““+++” (>50 = +++)”.

“143 (FELPTGAGLQL; listed as Homo sapiens) [compound 143]”: the Peptide exchange entry in assay [2] was ““++” (>20% = ++)”.

Turning to “162 (MPMISIPRV; listed as Homo sapiens) [compound 162]”, the Peptide exchange result in assay [2] was ““++” (>20% = ++)”.

Turning to “24 (YTHHLFIFY; listed as Homo sapiens) [compound 24]”, the “Wells positive [%]” value in assay [3] (HLA A*01) was ““+” (<20% = +)”. For the same substance, in assay [4], the Peptide exchange result was ““+” (>10% = +)”.

“159 (FPAHPSLLL; listed as Homo sapiens) [compound 159]”: the Peptide exchange entry in assay [2] was ““++” (>20% = ++)”.

For “158 (VPERGEPEL; listed as Homo sapiens) [compound 158]”, the Peptide exchange result in assay [2] is recorded as ““++” (>20% = ++)”.

Regarding “1 (RSDPVTLDV; listed as Homo sapiens) [compound 1]”, the “Wells positive [%]” value in assay [3] (HLA A*01) is reported as ““++” (20%-49% = ++)”. Also, the Peptide exchange result in assay [4] is ““+++” (>50 = +++)”.

In the case of “257 (SPLRGGSSL; listed as Homo sapiens) [compound 257]”, the Peptide exchange result in assay [2] was ““++” (>20% = ++)”.

Consider “165 (TPIAKVSEL; listed as Homo sapiens) [compound 165]”, for which the Peptide exchange entry in assay [2] is on record as ““+++” (>50 = +++)”.

Regarding “167 (YPSEVEHMF; listed as Homo sapiens) [compound 167]”, the Peptide exchange entry in assay [2] was ““++” (>20% = ++)”.

In the case of “174 (VPSLQRLML; listed as Homo sapiens) [compound 174]”, the Peptide exchange result in assay [2] is listed as ““+++” (>50 = +++)”.

For the substance “173 (MVPSAGQLALF; listed as Homo sapiens) [compound 173]”, the Peptide exchange entry in assay [2] is on record as ““++” (>20% = ++)”.

For the substance “153 (APAAVPSAPA; listed as Homo sapiens) [compound 153]”, in assay [2], the Peptide exchange result is given as ““+++” (>50 = +++)”.

On to “155 (FPYPYAERL; listed as Homo sapiens) [compound 155]”, for which the “Wells positive [%]” value in assay [3] (HLA B*07) is listed as ““+++” (50%-69% = +++)”. The Peptide exchange result in assay [2] is on record as ““++” (>20% = ++)”.

Consider “20 (STDEITTRY; listed as Homo sapiens) [compound 20]”, for which the “Wells positive [%]” value in assay [3] (HLA A*01) is given as ““+” (<20% = +)”. Also, the Peptide exchange entry in assay [4] is ““+++” (>50 = +++)”.

With “150 (KPSSKALGTSL; listed as Homo sapiens) [compound 150]”, the Peptide exchange entry in assay [2] is on record as ““+++” (>50 = +++)”.

Take “247 (RSDPGGGGLAY; listed as Homo sapiens) [compound 247]”: the “Wells positive [%]” value in assay [3] (HLA A*01) was ““+” (<20% = +)”. For the same substance, in assay [4], the Peptide exchange entry is given as ““+++” (>50 = +++)”.

Regarding “259 (RPAVGHSGL; listed as Homo sapiens) [compound 259]”, in assay [2], the Peptide exchange result is reported as ““++” (>20% = ++)”.

As for “161 (NPYEGRVEV; listed as Homo sapiens) [compound 161]”, the Peptide exchange result in assay [2] is on record as ““++” (>20% = ++)”.

In the case of “175 (HPIETLVDIF; listed as Homo sapiens) [compound 175]”, the Peptide exchange entry in assay [2] is recorded as ““++” (>20% = ++)”.

Take “151 (VVHPRTLLL; listed as Homo sapiens) [compound 151]”: in assay [2], the Peptide exchange entry is ““++” (>20% = ++)”.

On to “255 (LPDGSRVEL; listed as Homo sapiens) [compound 255]”, for which the “Wells positive [%]” value in assay [3] (HLA B*07) is ““++++” (>= 70% = ++++)”. Also, the Peptide exchange result in assay [2] was ““++” (>20% = ++)”.

With “145 (RVPSYTLIL; listed as Homo sapiens) [compound 145]”, in assay [2], the Peptide exchange result was ““+++” (>50 = +++)”.

On to “169 (FPTEVTPHAF; listed as Homo sapiens) [compound 169]”, for which, in assay [2], the Peptide exchange result is given as ““++” (>20% = ++)”.

As for “171 (APKLFAVAF; listed as Homo sapiens) [compound 171]”, in assay [2], the Peptide exchange result is recorded as ““+++” (>50 = +++)”.

Turning to “163 (RPASSLRP; listed as Homo sapiens) [compound 163]”, in assay [2], the Peptide exchange entry is ““++” (>20% = ++)”.

On to “37 (LTDSFPLKV; listed as Homo sapiens) [compound 37]”, for which the “Wells positive [%]” value in assay [3] (HLA A*01) is recorded as ““+++” (50%-69% = +++)”. For the same substance, the Peptide exchange result in assay [4] is on record as “u+++” (>50 = +++)”.

For “152 (IPSRLLAIL; listed as Homo sapiens) [compound 152]”, the Peptide exchange entry in assay [2] is ““+++” (>50 = +++)”.

With “144 (IPEPSAQQL; listed as Homo sapiens) [compound 144]”, the “Wells positive [%]” value in assay [3] (HLA B*07) is recorded as ““+” (<20% = +)”. Also, the Peptide exchange entry in assay [2] is recorded as ““++” (>20% = ++)”.

Turning to “6 (VLDLSTNVY; listed as Homo sapiens) [compound 6]”, in assay [3] (HLA A*01), the “Wells positive [%]” value was ““++” (20%-49% = ++)”. The Peptide exchange entry in assay [4] was ““+++” (>50 = +++)”.

Take “2 (LPSPTDSNFY; listed as Homo sapiens) [compound 2]”: the Peptide exchange entry in assay [4] is on record as ““++” (>20% = ++)”.

Turning to “166 (HDPDVGSNSL; listed as Homo sapiens) [compound 166]”, in assay [2], the Peptide exchange result is given as ““++” (>20% = ++)”.

For the substance “31 (VTDLEMPHY; listed as Homo sapiens) [compound 31]”, in assay [3] (HLA A*01), the “Wells positive [%]” value is reported as ““+” (<20% = +)”. In addition, in assay [4], the Peptide exchange result is ““++++” (>75% = ++++)”.

Take “14 (YTERDGSAMVY; listed as Homo sapiens) [compound 14]”: the Peptide exchange result in assay [4] is reported as ““+++” (>50 = +++)”.

“33 (FADKIHLAY; listed as Homo sapiens) [compound 33]”: the “Wells positive [%]” value in assay [3] (HLA A*01) is given as ““++” (20%-49% = ++)”. The Peptide exchange entry in assay [4] is recorded as ““++” (>20% = ++)”.
